Laboratory results taken from publication PMC11470070, “Structural basis for synthase activation and cellulose modification in the E. coli Type II Bcs secretion system” (Nature Communications, 2024).

What was measured:
[1] = target: T1, BcsE (in the BcsR2Q2AB6E2F2G3 Bcs macrocomplex) (Escherichia coli, UniProt P37657); assay: cryo-EM structure of the complex; format: binding; settings: intercalated c-di-GMP dimer per BcsE protomer at the REC*-GGDEF* dual I-site (R306ATD, R415TGD); 2-4 uM c-di-GMP, 5 mM MgCl2, pH 8.0
T1 construct: full-length, N-terminal Strep II tag; co-expressed Bcs macrocomplex in E. coli NiCo21(DE3), anti-FLAG purified; with Cellulose biosynthesis protein BcsF; Cellulose biosynthesis protein BcsR; Cellulose biosynthesis protein BcsQ; Cellulose synthase catalytic subunit [UDP-forming]; Cellulose biosynthesis protein BcsG

[2] = target: T2, BcsQ (BcsR2Q2 in the Bcs macrocomplex) (Escherichia coli, UniProt P0DP92); assay: cryo-EM structure of the complex; format: binding; settings: nucleotide-driven BcsQ sandwich dimer; text says ATP-bound, but 10 uM AppCp (non-hydrolysable analogue) was in the purification buffers; 5 mM MgCl2, pH 8.0
T2 construct: full-length untagged BcsQ with His-BcsR; co-expressed Bcs macrocomplex in E. coli NiCo21(DE3), anti-FLAG purified; nucleotide-driven sandwich dimer; with Cellulose biosynthesis protein BcsR; Cellulose synthase catalytic subunit [UDP-forming]; Cellulose biosynthesis protein BcsF; Cellulose biosynthesis protein BcsG
T2 sequence (P0DP92 1-250): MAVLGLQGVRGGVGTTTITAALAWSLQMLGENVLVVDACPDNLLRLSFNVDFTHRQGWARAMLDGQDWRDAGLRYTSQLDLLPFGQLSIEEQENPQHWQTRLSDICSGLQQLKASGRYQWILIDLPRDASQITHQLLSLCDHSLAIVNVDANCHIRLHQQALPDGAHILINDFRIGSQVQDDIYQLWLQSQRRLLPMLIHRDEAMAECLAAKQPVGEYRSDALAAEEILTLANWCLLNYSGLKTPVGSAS
T2 sequence (P0ADJ3 1-62 partner): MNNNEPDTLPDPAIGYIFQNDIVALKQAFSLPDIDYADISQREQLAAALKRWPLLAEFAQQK

[3] = target: the molecule itself; assay: cryo-EM structure; Bcs macrocomplex co-expressed in E. coli and purified on anti-FLAG gel by BcsA^HA-FLAG, 20 mM HEPES pH 8.0, 120 mM NaCl, 5 mM MgCl2, 10 μM AppCp, 4 μM c-di-GMP, 0.01% LM-NPG; class of the c-di-GMP-saturated macrocomplex with local refinements; the BcsB crown refined from all particles
[4] = target: the molecule itself; assay: cryo-EM structure; same sample and grids as a1; class of particles with a c-di-GMP-free BcsA synthase (non-saturated macrocomplex), with local refinements
[5] = target: T3, BcsA cellulose synthase (BcsA^HA-FLAG) (E. coli, UniProt P37653 1-872); assay: as above; settings: both partners purified
T3 construct: BcsA, E. coli; amplified within the genomic region bcsRQA^HA-FLAGB from genomic DNA of the E. coli 1094 bcsA^HA-FLAG strain; domains NTD, TMD, GT, PilZ, C-terminal tail; Expressed from the whole genomic region bcsRQAB of strain 1094; One copy in the macrocomplex; source: for the BcsF variants E. coli Δbcs BL21*(DE3)
T3 sequence: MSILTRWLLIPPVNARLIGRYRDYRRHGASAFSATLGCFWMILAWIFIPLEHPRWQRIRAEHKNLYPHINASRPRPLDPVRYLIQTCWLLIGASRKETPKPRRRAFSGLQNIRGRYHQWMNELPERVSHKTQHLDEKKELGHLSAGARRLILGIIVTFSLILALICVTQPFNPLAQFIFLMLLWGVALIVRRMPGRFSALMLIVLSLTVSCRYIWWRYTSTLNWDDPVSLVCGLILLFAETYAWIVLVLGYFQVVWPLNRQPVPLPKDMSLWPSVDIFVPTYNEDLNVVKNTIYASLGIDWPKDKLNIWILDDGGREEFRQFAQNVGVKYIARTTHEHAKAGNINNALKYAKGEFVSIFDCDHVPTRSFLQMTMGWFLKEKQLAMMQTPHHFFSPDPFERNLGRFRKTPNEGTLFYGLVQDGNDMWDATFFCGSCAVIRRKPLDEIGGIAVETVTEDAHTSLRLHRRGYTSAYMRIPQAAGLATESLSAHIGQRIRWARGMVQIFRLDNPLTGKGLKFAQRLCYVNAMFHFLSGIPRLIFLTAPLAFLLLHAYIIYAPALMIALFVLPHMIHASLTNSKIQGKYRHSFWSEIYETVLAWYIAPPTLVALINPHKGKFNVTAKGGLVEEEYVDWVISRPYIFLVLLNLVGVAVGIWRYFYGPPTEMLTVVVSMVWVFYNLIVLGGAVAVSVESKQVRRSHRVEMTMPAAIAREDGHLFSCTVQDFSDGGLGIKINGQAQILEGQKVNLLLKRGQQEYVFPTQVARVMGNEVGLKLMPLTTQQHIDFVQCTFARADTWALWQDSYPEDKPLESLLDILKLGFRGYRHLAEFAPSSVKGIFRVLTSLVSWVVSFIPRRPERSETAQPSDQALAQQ

Nc1nc2c(ncn2[C@@H]2O[C@@H]3COP(=O)(O)O[C@H]4[C@@H](O)[C@H](n5cnc6c(=O)[nH]c(N)nc65)O[C@@H]4COP(=O)(O)O[C@H]3[C@H]2O)c(=O)[nH]1 [c-di-GMP]
cryo-EM structure of the complex [1]: An intercalated c-di-GMP dimer is found at each cis-interdomain interface of a closed BcsE

Nc1ncnc2c1ncn2[C@@H]1O[C@H](COP(=O)(O)OP(=O)(O)OP(=O)(O)O)[C@@H](O)[C@H]1O [ATP]
cryo-EM structure of the complex [2]: the BcsR copies stabilize the ATP-bound BcsQ apical dimer

B1: BcsQ (natural protein, E. coli)
chain: MAVLGLQGVRGGVGTTTITAALAWSLQMLGENVLVVDACPDNLLRLSFNVDFTHRQGWARAMLDGQDWRDAGLRYTSQLDLLPFGQLSIEEQENPQHWQTRLSDICSGLQQLKASGRYQWILIDLPRDASQITHQLLSLCDHSLAIVNVDANCHIRLHQQALPDGAHILINNFRIGSQVQDDIYQLWLQSQRRLLPMLIHRDEAMAECLAAKQPVGEYRSDALAAEEILTLANWCLLNYSGLKTPVGSKS
notes: BcsQ, E. coli; amplified within the genomic region bcsRQA^HA-FLAGB of E. coli 1094; the strain used is 1094; also called SIMIBI family NTPase BcsQ
stoichiometry N [3]: 2

B2: BcsF (natural protein, E. coli)
chain: MMTISDIIEIIVVCALIFFPLGYLARHSLRRIRDTLRLFFAKPRYVKPAGTLRRTEKARATKK
notes: BcsF, E. coli; amplified within the genomic region bcsEFG; single transmembrane helix, amphipathic helical extension and cytosolic C-terminal tail; Two copies in the macrocomplex; also called inner membrane polypeptide BcsF; source: for the BcsF variants experiment E. coli Δbcs BL21*(DE3)
stoichiometry N [4]: 2

B3: BcsB co-polymerase (natural protein, E. coli, UniProt P37652 26-779, looked up)
chain: TPATQPLINAEPAVAAQTEQNPQVGQVMPGVQGADAPVVAQNGPSRDVKLTFAQIAPPPGSMVLRGINPNGSIEFGMRSDEVVTKAMLNLEYTPSPSLLPVQSQLKVYLNDELMGVLPVTKEQLGKKTLAQMPINPLFISDFNRVRLEFVGHYQDVCEKPASTTLWLDVGRSSGLDLTYQTLNVKNDLSHFPVPFFDPSDNRTNTLPMVFAGAPDVGLQQASAIVASWFGSRSGWRGQNFPVLYNQLPDRNAIVFATNDKRPDFLRDHPAVKAPVIEMINHPQNPYVKLLVVFGRDDKDLLQAAKGIAQGNILFRGESVVVNEVKPLLPRKPYDAPNWVRTDRPVTFGELKTYEEQLQSSGLEPAAINVSLNLPPDLYLMRSTGIDMDINYRYTMPPVKDSSRMDISLNNQFLQSFNLSSKQEANRLLLRIPVLQGLLDGKTDVSIPALKLGATNQLRFDFEYMNPMPGGSVDNCITFQPVQNHVVIGDDSTIDFSKYYHFIPMPDLRAFANAGFPFSRMADLSQTITVMPKAPNEAQMETLLNTVGFIGAQTGFPAINLTVTDDGSTIQGKDADIMIIGGIPDKLKDDKQIDLLVQATESWVKTPMRQTPFPGIVPDESDRAAETRSTLTSSGAMAAVIGFQSPYNDQRSVIALLADSPRGYEMLNDAVNDSGKRATMFGSVAVIRESGINSLRVGDVYYVGHLPWFERVWYALANHPILLAVLAAISVILLAWVLWRLLRIISRRRLNPDNE
notes: BcsB, E. coli; amplified within the genomic region bcsRQA^HA-FLAGB of E. coli 1094; periplasmic modules CBD1-FD1-CBD2-FD2 and a C-terminal tail-anchor (TA); Six copies in the macrocomplex; the strain used is 1094; also called BcsB^TA (tail-anchor); periplasmic crown
stoichiometry N [3]: 6

B4: BcsG pEtN-transferase (enzyme, E. coli)
chain: MTQFTQNTAMPSSLWQYWRGLSGWNFYFLVKFGLLWAGYLNFHPLLNLVFAAFLLMPLPRYSLHRLRHWIALPIGFALFWHDTWLPGPESIMSQGSQVAGFSTDYLIDLVTRFINWQMIGAIFVLLVAWLFLSQWIRITVFVVAILLWLNVLTLAGPSFSLWPAGQPTTTVTTTGGNAAATVAATGGAPVVGDMPAQTAPPTTANLNAWLNNFYNAEAKRKSTFPSSLPADAQPFELLVINICSLSWSDIEAAGLMSHPLWSHFDIEFKNFNSATSYSGPAAIRLLRASCGQTSHTNLYQPANNDCYLFDNLSKLGFTQHLMMGHNGQFGGFLKEVRENGGMQSELMDQTNLPVILLGFDGSPVYDDTAVLNRWLDVTEKDKNSRSATFYNTLPLHDGNHYPGVSKTADYKARAQKFFDELDAFFTELEKSGRKVMVVVVPEHGGALKGDRMQVSGLRDIPSPSITDVPVGVKFFGMKAPHQGAPIVIEQPSSFLAISDLVVRVLDGKIFTEDNVDWKKLTSGL
notes: BcsG, E. coli; amplified within the genomic region bcsEFG; N-terminal domain of 5 transmembrane helices, 48-residue linker, C-terminal pEtN-transferase domain (the last not resolved in the maps); Three copies in the macrocomplex; also called BcsG^NTD; BcsG3
stoichiometry N [5]: 3
stoichiometry N [4]: 3
